In patent publication US20200024330A1:

How the values were obtained:
Experiment in all cases: cell-based or functional assay
[1] = biological target: HIV-1 Env of isolate SC422661.8 (HIV-1)
[2] = biological target: HIV-1 Env of isolate MGRM-Chronic-B-011 (HIV-1)
[3] = biological target: HIV-1 Env of isolate MGRM-F1-016 (HIV-1)
[4] = biological target: HIV-1 Env of isolate MGRM-F1-020 (HIV-1)
[5] = biological target: HIV-1 Env of isolate MGRM-D-026 (HIV-1)
[6] = biological target: HIV-1 Env of isolate MGRM-Chronic-B-023 (HIV-1)
[7] = biological target: HIV-1 Env of isolate VLGCB3 (HIV-1)
[8] = biological target: HIV-1 Env of isolate MGRM-F1-008 (HIV-1)
[9] = biological target: HIV-1 Env of isolate MGRM-F1-006 (HIV-1)
[10] = biological target: HIV-1 Env of isolate 93IN905 (HIV-1)
[11] = biological target: HIV-1 Env of isolate MGRM-Chronic-B-010 (HIV-1)
[12] = biological target: HIV-1 Env of isolate MGRM-F1-010 (HIV-1)
[13] = biological target: HIV-1 Env of isolate QH0692.42 (HIV-1)
[14] = biological target: HIV-1 Env of isolate MGRM-Chronic-B-012 (HIV-1)
[15] = biological target: HIV-1 Env of isolate MGRM-F1-015 (HIV-1)
[16] = biological target: HIV-1 Env of isolate TRO.11 (HIV-1)
[17] = biological target: HIV-1 Env of isolate SF162 (HIV-1) (UniProt P19550)
[18] = biological target: HIV-1 Env of isolate JRCSF (HIV-1) (UniProt P20871)
[19] = biological target: HIV-1 Env of isolate MGRM-F1-023 (HIV-1)
[20] = biological target: HIV-1 Env of isolate MGRM-D-014 (HIV-1)
[21] = biological target: HIV-1 Env of isolate MGRM-F1-012 (HIV-1)
[22] = biological target: HIV-1 Env of isolate 93MW959 (HIV-1)
[23] = biological target: HIV-1 Env of isolate MGRM-D-029 (HIV-1)
[24] = biological target: HIV-1 Env of isolate MGRM-D-016 (HIV-1)
[25] = biological target: HIV-1 Env of isolate MGRM-D-011 (HIV-1)
[26] = biological target: HIV-1 Env of isolate MGRM-Chronic-B-024 (HIV-1)
[27] = biological target: HIV-1 Env of isolate MGRM-D-019 (HIV-1)
[28] = biological target: HIV-1 Env of isolate MGRM-D-021 (HIV-1)
[29] = biological target: HIV-1 Env of isolate MGRM-F1-021 (HIV-1)
[30] = biological target: HIV-1 Env of isolate MGRM-D-022 (HIV-1)
[31] = biological target: HIV-1 Env of isolate MGRM-F1-017 (HIV-1)
[32] = biological target: HIV-1 Env of isolate MGRM-F1-014 (HIV-1)
[33] = biological target: HIV-1 Env of isolate MGRM-D-028 (HIV-1)
[34] = biological target: HIV-1 Env of isolate MGRM-D-012 (HIV-1)
[35] = biological target: HIV-1 Env of isolate MGRM-F1-022 (HIV-1)
[36] = biological target: HIV-1 Env of isolate MGRM-D-018 (HIV-1)
[37] = biological target: HIV-1 Env of isolate MGRM-F1-013 (HIV-1)
[38] = biological target: HIV-1 Env of isolate MGRM-D-013 (HIV-1)
[39] = biological target: HIV-1 Env of isolate MGRM-F1-004 (HIV-1)
[40] = biological target: HIV-1 Env of isolate 98IN022 (HIV-1)
[41] = biological target: HIV-1 Env of isolate MGRM-D-024 (HIV-1)
[42] = biological target: HIV-1 Env of isolate MGRM-D-020 (HIV-1)
[43] = biological target: HIV-1 Env of isolate MGRM-Chronic-B-017 (HIV-1)
[44] = biological target: HIV-1 Env of isolate MGRM-F1-018 (HIV-1)
[45] = biological target: HIV-1 Env of isolate NL43 (HIV-1)
[46] = biological target: HIV-1 Env of isolate MGRM-Chronic-B-020 (HIV-1)
[47] = biological target: HIV-1 Env of isolate 97ZA012 (HIV-1)
[48] = biological target: HIV-1 Env of isolate MGRM-Chronic-B-018 (HIV-1)
[49] = biological target: HIV-1 Env of isolate THR0.18 (HIV-1)
[50] = biological target: HIV-1 Env of isolate TRJ04551.58 (HIV-1)
[51] = biological target: HIV-1 Env of isolate PVO.4 (HIV-1)

Chain of PGT-145 (antibody) (VH): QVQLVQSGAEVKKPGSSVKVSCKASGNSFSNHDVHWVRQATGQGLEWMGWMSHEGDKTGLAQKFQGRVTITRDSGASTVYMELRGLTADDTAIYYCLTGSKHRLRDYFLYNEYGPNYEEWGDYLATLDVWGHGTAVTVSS
Chain of PGT-145 (antibody) (VL): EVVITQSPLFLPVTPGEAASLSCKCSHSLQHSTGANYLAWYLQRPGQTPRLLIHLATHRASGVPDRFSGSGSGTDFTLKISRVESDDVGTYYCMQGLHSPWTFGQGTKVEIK
Chain of PGT-144 (antibody) (VH): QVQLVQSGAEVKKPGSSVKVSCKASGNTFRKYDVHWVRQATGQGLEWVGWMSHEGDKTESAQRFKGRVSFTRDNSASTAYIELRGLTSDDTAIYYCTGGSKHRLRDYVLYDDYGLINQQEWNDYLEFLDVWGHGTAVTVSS
Chain of PGT-144 (antibody) (VL): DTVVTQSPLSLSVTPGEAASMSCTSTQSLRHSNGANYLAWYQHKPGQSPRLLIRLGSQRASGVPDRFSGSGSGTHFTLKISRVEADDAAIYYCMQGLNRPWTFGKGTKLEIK

With PGT-144 (antibody) the neutralization IC50 [1] was > 50 µg/mL, the neutralization IC50 [2] was 5.64 µg/mL and the IC50, pseudovirus neutralization [3] was > 50 µg/mL. The IC50, pseudovirus neutralization [4] was 8.93 µg/mL, the IC50, pseudovirus neutralization [5] was > 50 µg/mL and the neutralization IC50 [6] was > 50 µg/mL. For the same substance, the neutralization IC50 [7] was > 50 µg/mL, the IC50, pseudovirus neutralization [8] was 0.507 µg/mL and the IC50, pseudovirus neutralization [9] was 20.6 µg/mL. For the same substance, the neutralization IC50 [10] was 0.132 µg/mL, the neutralization IC50 [11] was > 50 µg/mL and the IC50, pseudovirus neutralization [12] was > 50 µg/mL. For the same substance, the neutralization IC50 [13] was > 50 µg/mL, the neutralization IC50 [14] was > 50 µg/mL and the IC50, pseudovirus neutralization [15] was > 50 µg/mL. For the same substance, the neutralization IC50 [16] was 4.73 µg/mL, the neutralization IC50 [17] was > 50 µg/mL and the neutralization IC50 [18] was 0.149 µg/mL. For the same substance, the IC50, pseudovirus neutralization [19] was 1.16 µg/mL, the IC50, pseudovirus neutralization [20] was 0.113 µg/mL and the IC50, pseudovirus neutralization [21] was > 50 µg/mL. The neutralization IC50 [22] was 0.332 µg/mL, the IC50, pseudovirus neutralization [23] was 0.459 µg/mL and the IC50, pseudovirus neutralization [24] was > 50 µg/mL. For the same substance, the IC50, pseudovirus neutralization [25] was > 50 µg/mL, the neutralization IC50 [26] was 0.04 µg/mL and the IC50, pseudovirus neutralization [27] was > 50 µg/mL. The IC50, pseudovirus neutralization [28] was > 50 µg/mL, the IC50, pseudovirus neutralization [29] was > 50 µg/mL and the IC50, pseudovirus neutralization [30] was > 50 µg/mL. For the same substance, the IC50, pseudovirus neutralization [31] was > 50 µg/mL, the IC50, pseudovirus neutralization [32] was 0.014 µg/mL and the IC50, pseudovirus neutralization [33] was > 50 µg/mL. For the same substance, the IC50, pseudovirus neutralization [34] was > 50 µg/mL, the IC50, pseudovirus neutralization [35] was 0.382 µg/mL and the IC50, pseudovirus neutralization [36] was > 50 µg/mL. The IC50, pseudovirus neutralization [37] was 0.509 µg/mL, the IC50, pseudovirus neutralization [38] was > 50 µg/mL and the IC50, pseudovirus neutralization [39] was 0.105 µg/mL. For the same substance, the neutralization IC50 [40] was 0.171 µg/mL, the IC50, pseudovirus neutralization [41] was > 50 µg/mL and the IC50, pseudovirus neutralization [42] was > 50 µg/mL. The neutralization IC50 [43] was 0.712 µg/mL, the IC50, pseudovirus neutralization [44] was > 50 µg/mL and the neutralization IC50 [45] was > 50 µg/mL. For the same substance, the neutralization IC50 [46] was > 50 µg/mL, the neutralization IC50 [47] was > 50 µg/mL and the neutralization IC50 [48] was 2.4 µg/mL. The neutralization IC50 [49] was 0.029 µg/mL, the neutralization IC50 [50] was > 50 µg/mL and the neutralization IC50 [51] was 0.535 µg/mL.

In the case of PGT-145 (antibody), the neutralization IC50 [1] is reported as 0.079 µg/mL, the neutralization IC50 [2] is reported as 0.206 µg/mL and the IC50, pseudovirus neutralization [3] is reported as 17.5 µg/mL. The IC50, pseudovirus neutralization [4] was 0.816 µg/mL, the IC50, pseudovirus neutralization [5] was 0.41 µg/mL and the neutralization IC50 [6] was 0.009 µg/mL. The neutralization IC50 [7] was > 50 µg/mL, the IC50, pseudovirus neutralization [8] was 0.228 µg/mL and the IC50, pseudovirus neutralization [9] was 13.6 µg/mL. For the same substance, the neutralization IC50 [10] was 0.002 µg/mL, the neutralization IC50 [11] was > 50 µg/mL and the IC50, pseudovirus neutralization [12] was 3.32 µg/mL. The neutralization IC50 [13] was > 50 µg/mL, the neutralization IC50 [14] was 9.66 µg/mL and the IC50, pseudovirus neutralization [15] was 1.76 µg/mL. The neutralization IC50 [16] was 0.044 µg/mL, the neutralization IC50 [17] was > 50 µg/mL and the neutralization IC50 [18] was 0.002 µg/mL. It also gave an IC50, pseudovirus neutralization [19] of 5.88 µg/mL, an IC50, pseudovirus neutralization [20] of 2.51 µg/mL and an IC50, pseudovirus neutralization [21] of 0.113 µg/mL. The neutralization IC50 [22] was 1.2 µg/mL, the IC50, pseudovirus neutralization [23] was 0.03 µg/mL and the IC50, pseudovirus neutralization [24] was > 50 µg/mL. The IC50, pseudovirus neutralization [25] was 14.7 µg/mL, the neutralization IC50 [26] was 0.018 µg/mL and the IC50, pseudovirus neutralization [27] was 0.111 µg/mL. For the same substance, the IC50, pseudovirus neutralization [28] was > 50 µg/mL, the IC50, pseudovirus neutralization [29] was 8.04 µg/mL and the IC50, pseudovirus neutralization [30] was 34.3 µg/mL. It also gave an IC50, pseudovirus neutralization [31] of 0.286 µg/mL, an IC50, pseudovirus neutralization [32] of 0.009 µg/mL and an IC50, pseudovirus neutralization [33] of 0.721 µg/mL. The IC50, pseudovirus neutralization [34] was > 50 µg/mL, the IC50, pseudovirus neutralization [35] was 0.009 µg/mL and the IC50, pseudovirus neutralization [36] was 0.065 µg/mL. It also gave an IC50, pseudovirus neutralization [37] of 0.402 µg/mL, an IC50, pseudovirus neutralization [38] of 3.48 µg/mL and an IC50, pseudovirus neutralization [39] of 0.361 µg/mL. It also gave a neutralization IC50 [40] of 0.005 µg/mL, an IC50, pseudovirus neutralization [41] of 0.224 µg/mL and an IC50, pseudovirus neutralization [42] of 10 µg/mL. For the same substance, the neutralization IC50 [43] was 0.054 µg/mL, the IC50, pseudovirus neutralization [44] was 1.02 µg/mL and the neutralization IC50 [45] was 0.006 µg/mL. The neutralization IC50 [46] was > 50 µg/mL, the neutralization IC50 [47] was 0.915 µg/mL and the neutralization IC50 [48] was 0.013 µg/mL. For the same substance, the neutralization IC50 [49] was 0.013 µg/mL, the neutralization IC50 [50] was > 50 µg/mL and the neutralization IC50 [51] was 0.299 µg/mL.
